# T1: glycolaldehyde reductase (GaR, VNG_6270G) (Halobacterium salinarum, UniProt Q9HHR2)
# T1 construct: native protein purified from H. salinarum cell-free extract (hydroxyapatite, Superdex200), identified by LC-MS; plasmid-encoded; GenBank entry is the codon-optimised recombinant gene (Hs-GaR)
# T1 sequence (Q9HHR2 1-365): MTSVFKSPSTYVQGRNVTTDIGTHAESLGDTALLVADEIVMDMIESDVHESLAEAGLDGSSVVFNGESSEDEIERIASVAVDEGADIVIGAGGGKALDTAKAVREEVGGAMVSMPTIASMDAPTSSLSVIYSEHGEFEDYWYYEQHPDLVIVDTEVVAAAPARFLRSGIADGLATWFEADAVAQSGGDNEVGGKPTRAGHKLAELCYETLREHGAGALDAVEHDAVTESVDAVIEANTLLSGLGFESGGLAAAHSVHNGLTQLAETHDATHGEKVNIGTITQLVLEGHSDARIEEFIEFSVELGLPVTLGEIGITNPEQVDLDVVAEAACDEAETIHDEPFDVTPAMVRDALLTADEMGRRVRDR
# B1: Hx-HAD hydrolase (RuBP phosphatase) (Halopiger xanaduensis SH-6) (protein)
# chain: MATAVLFDLDNTLYPYPPCNQAGKAAALERAQELGYDFDHESFAEFYQAGRREVKRDTGGTAASHERYLYFKRALELHTGSPRPGDALALGDAYWSAYLEEMSLVPDAKETLEELQEQGVDIAITTNLTTTIQLAKLERLGLTDYVDLVLTSEETGQEKPASVMFTLPLARLDSRASEAVMVGDDLEADIAGANAVGLETVLFDPSEESDATESADRAATERQADHSIDTLGELTDLVS
# notes: recombinant from E. coli Rosetta (DE3), codon-optimised synthetic gene in pET-21a(+) NdeI/BamHI, purified on hydroxyapatite and gel filtration
# B2: Hl-Urdpase1 (guanosine phosphorylase) (Halorubrum lacusprofundi ATCC 49239) (protein)
# chain: MAKQPHLLVEEGDVHEIAIIPGDPGRVDRIADLCDDSELVAQNREYKIVNASYDGTDLTICSTGIGCPSAAIAVEELSRVGVETFLRCGTCGALQADMEVGDMVVATGAAKEEGTSKRYESVEYPAVPDYDALTELVGAAEDNDEEIHVGPIVSDDAFYNESDEYVDDWNDANLLAIEMEAATVFALARRKGLRAGAICTVDGNLVAGNQKGADSDDELPEKAKDNVERAIRITLNAVTAL
# notes: recombinant from E. coli BL21-CodonPlus(DE3)-RIL, codon-optimised synthetic gene in pET-21a(+) NdeI/BamHI, purified on hydroxyapatite and gel filtration
# B3: Hx-FucA (Ru1P aldolase) (Halopiger xanaduensis SH-6) (protein)
# chain: MILETERRAVVEHASELADLTPGRTGNLSVRGSGDDTDAGPGDAFAITPTGVPYDGFDVEDVPVVGTDGERLDGEMAPSSEVPMHSAIYRREDVGAIVHTHSPWATALAVANQPLPPIHYMIVAVGKRVPVAEYAPYGTDELAENIVTAMTEAGSTASLIENHGLVVTAPDLETALENTHHVESLARLYLESRSAGLEPQTLTDDQLETVLEKFESYGQ
# notes: recombinant from E. coli Rosetta (DE3), codon-optimised synthetic gene in pET-21a(+) NdeI/BamHI, purified on anion exchange, hydroxyapatite and gel filtration
# B4: glycolaldehyde reductase (GaR, VNG_6270G) (Halobacterium salinarum NRC-1) (protein)
# chain: T1 sequence (Q9HHR2 1-365)
# notes: native protein purified from H. salinarum cell-free extract (hydroxyapatite, Superdex200), identified by LC-MS; plasmid-encoded; GenBank entry is the codon-optimised recombinant gene (Hs-GaR)
# How the values were obtained:
# Hx-RbsK (ATP-R1PK) [1] = biological target: T2, Hx-RbsK (ATP-R1PK) (Halopiger xanaduensis, UniProt F8D4I6); assay: PK/LDH-coupled NDP quantification; HPLC of product R15P; assay type: biochemical; settings: 20 mM MgCl2, 2 M KCl, pH 8.3-8.4, 47 °C
# T2 construct: gene Halxa_1682; recombinant from E. coli Rosetta (DE3), codon-optimised synthetic gene in pET-21a(+) NdeI/BamHI, purified on anion exchange, hydroxyapatite and gel filtration
# T2 sequence (F8D4I6 whole entry): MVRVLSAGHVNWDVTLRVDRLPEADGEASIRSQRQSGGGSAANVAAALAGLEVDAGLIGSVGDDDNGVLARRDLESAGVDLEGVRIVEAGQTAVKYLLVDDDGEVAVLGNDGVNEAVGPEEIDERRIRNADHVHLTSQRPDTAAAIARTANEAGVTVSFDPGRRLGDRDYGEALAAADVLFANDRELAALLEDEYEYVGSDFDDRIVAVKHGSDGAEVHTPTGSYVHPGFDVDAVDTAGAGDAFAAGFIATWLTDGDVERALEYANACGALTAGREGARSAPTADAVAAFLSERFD
# Hx-RbsK (ATP-R1PK) [2] = biological target: T2, Hx-RbsK (ATP-R1PK); assay: PK/LDH-coupled NDP quantification; assay type: biochemical; settings: 25 mM R1P, 20 mM MgCl2, 0.8 M NaCl, 42 °C
# [3] = biological target: T1, glycolaldehyde reductase (GaR, VNG_6270G); assay: NADH consumption at […] nm; assay type: biochemical; settings: 0.2 mM NADH, 50 mM MES-NaOH pH 6.0, 3 M KCl, 40 °C; fit with substrate inhibition; substrate inhibition constant, second site
# purified protein [4] = substrate: O=C(COP(=O)(O)O)[C@H](O)[C@H](O)COP(=O)(O)O; assay: purified protein; assay type: biochemical, Halopiger xanaduensis; settings: 50 mM Tris-HCl pH 7.5, 2 M KCl, 5 mM MgCl2
# purified protein [5] = substrate: Nc1nc2c(ncn2[C@@H]2O[C@H](CO)[C@@H](O)[C@H]2O)c(=O)[nH]1; assay: purified protein; assay type: biochemical, Halorubrum lacusprofundi; settings: 50 mM sodium phosphate pH 7.5, 2 M KCl, 30 °C
# purified protein [6] = substrate: O=P(O)(O)O; assay: purified protein; settings: 1 mM guanosine, 2 M KCl, 30 °C
# [7] = substrate: O=C(CO)COP(=O)(O)O; assay: HPLC of Ru1P formed (condensation direction); assay type: biochemical, Halopiger xanaduensis; settings: 50 mM glycolaldehyde, 50 mM Tris-HCl pH 8.0, 2 M KCl, 1 mM ZnCl2, 47 °C
# [8] = substrate: O=CCO; assay: HPLC of Ru1P formed (condensation direction); assay type: biochemical, Halopiger xanaduensis; settings: 20 mM DHAP, 50 mM Tris-HCl pH 8.0, 2 M KCl, 1 mM ZnCl2, 47 °C
# purified protein [9] = substrate: O=CCO; assay: purified protein; assay type: biochemical, Halobacterium salinarum; settings: 0.2 mM NADH, 50 mM MES-NaOH pH 6.0, 3 M KCl, 40 °C, fit with substrate inhibition
molecule,measurement,setting,value
O=P(O)(O)O[C@H]1O[C@H](CO)[C@@H](O)[C@H]1O [R1P],PK/LDH-coupled NDP quantification; HPLC of product R15P,Hx-RbsK (ATP-R1PK) [1],HPLC analysis of the Hx-RbsK reaction product indicated that R15P was generated from R1P
Nc1ncnc2c1ncn2[C@@H]1O[C@H](COP(=O)(O)OP(=O)(O)OP(=O)(O)O)[C@@H](O)[C@H]1O [ATP],PK/LDH-coupled NDP quantification,Hx-RbsK (ATP-R1PK) [2],"Using R1P as the phosphate acceptor, the enzyme preferred ATP among NTPs"
O=CCO [glycolaldehyde],Ks2,[3],35 ± 8 mM
B1,Km,purified protein [4],2.2 ± 0.5 mM
B2,Km,purified protein [5],0.056 ± 0.01 mM
same,Km,purified protein [6],4.8 ± 0.8 mM
B3,Km,[7],3.5 ± 0.3 mM
same,Km,[8],3.4 ± 0.3 mM
B4,Km,purified protein [9],10 ± 2 mM

# From paper PMC9700705, “A non-carboxylating pentose bisphosphate pathway in halophilic archaea” (Communications Biology, 2022)
